Reference: patent US20060140946A1

Target: human lymphotoxin (TNFβ) (human) (UniProt P01374)
Experiment: cell-based or functional assay

human lymphotoxin (TNFβ) (human), sequence (P01374 35-205 limits assumed): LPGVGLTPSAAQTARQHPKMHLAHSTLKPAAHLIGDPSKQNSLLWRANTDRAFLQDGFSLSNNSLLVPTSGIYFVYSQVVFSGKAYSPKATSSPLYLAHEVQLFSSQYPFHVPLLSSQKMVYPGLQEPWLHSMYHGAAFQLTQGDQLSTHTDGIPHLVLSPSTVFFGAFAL

**Q.** Which concentration required to half-inhibit human TNFβ at 2 pM, WEHI 164 cytotoxicity assay does the source give for “p75P-sf2 TNF receptor/IgG1 fusion protein (from UniProt P20333 23-204) (Fc fusion)” here?
**A.** 31 pM
